Data from patent US20090203610A1, “METHODS OF TREATING OBESITY OR DIABETES USING NT-4/5” (RINAT NEUROSCIENCE CORPORATION, priority 2004, published 2009).

Key:
db/db mice [1] = experiment: Heart and gastrocnemius muscle weight in db/db mice (Example 1); conditions: day 28; NT-4/5 20 mg/kg s.c., Rosiglitazone 3 mg/kg p.o.
Procedure: Test animals: 24 female 10-12 weeks old db/db mice (C57BL/Ks J Rj-db/db, Janvier, France), weighing in the target range of 40-50 g, were used in this study. These mice were housed in a temperature (19.5-24.5° C.) and relative humidity (45-65%) controlled room with a 12-hour light/dark cycle, with ad libitum access to filtered tap-water and irradiated pelleted laboratory chow (SAFE, France) throughout the study. Upon receipt at animal facilities, they were housed 4 per cage covered with filtered caps and at least a 5-day acclimation period was observed.
The mice were divided into three groups of 8 mice each (groups 1-3). Each group was treated with vehicle (PBS) subcutaneously (s.c.), 3 mg/kg Rosiglitazone orally (p.o.), or 20 mg/kg NT-4/5 subcutaneously (s.c.). From day 1 to day 5 (T1-T5) and then from day 8 to day 12 (T8-T12), the mice in groups 2 and 3 were dosed once daily for 5 consecutive days, with a volume of 10 ml/kg.
Heart weight and gastrocnemius weight were measured on day 28 for vehicle, Rosiglitazone, and NT-4/5 treated mice.

[2] = Serum half life after single subcutaneous dose in db/db mice (Example 7); type: in vivo; conditions: single subcutaneous dose of 4 mg/kg in db/db mice; estimated
Text: In addition, pegylated NT-4/5 has extended half life in vivo.

[3] = test system: NONcNZO-10 polygenic obese mice; experiment: Food intake in NONcNZO-10 mice (Example 4, Table 20); type: in vivo
Text: (§1) Test animals: 40 male NONcNZO-10 polygenic obese mice obtained from Jackson Laboratory at 10 weeks of age weighing in the range of 26-32 g were used in this study.
(§2) Administration of NT-4/5: NT-4/5 was produced in E. coli as descried in U.S. Pat. No. 6,184,360. The mice were divided into 6 groups of equivalent body weight and baseline blood glucose distribution (6-7 mice per group). […] A “paired-fed” control group received daily injection of vehicle, but were only fed with the same amount of food the 3 mg/kg group consumed the previous day. On the day when the treatment started (day 1), a baseline blood samples were collected for measuring glucose and triglyceride. Triglyceride level was measured on day 10. At the end of the study (day 12), a terminal blood sample was collected to determine glucose, triglyceride, electrolytes (Na, K, Cl), testoterone, corticosterone, thyroid hormone (total T4) and thyroid stimulating hormone (TSH) levels. Electrolytes, free testosterone, T4 and TSH levels of serum samples were measured by AniLytics (Gaithesburg, M.D) according to the standard protocols employed by the vendor. Other analytes were measured as described above. Body weight, food intake were monitored 5 days per week through out the entire study. Daily water intake was measured from day 5 through day 7.

db/db mice [4] = experiment: Long term glucose control in db/db mice (Example 14); type: in vivo
Procedure: Db/db mice maintained as described in Example 1 were divided into five groups (groups 1-5). Group 1 were administered with vehicle (PBS). Group 2, group 3, group 4, group 5 were each administered with NT-4/5 at the doses of 2 mg/kg, 5 mg/kg, 10 mg/kg, and 20 mg/kg, respectively. Both the vehicle and NT-4/5 were administered to each group of the mice subcutaneously once daily from day 1 to day 26. One day before beginning the treatment (day 0), blood samples were collected from the mice as described previously for the determination of baseline levels of serum biomarkers (glucose and insulin). On day 45, HbA1c level was measured. Glucose tolerance test was performed on day 54 (28 days after the last dose of NT-4/5 treatment). Intraperitoneal (IP) glucose tolerance test was conducted by fasting the mice overnight (16 hours) before giving them an IP injection of a load of 2 grams of glucose/kg of body weight. Serum glucose and insulin were also measured.

db/db mice [5] = experiment: Body weight, daily then intermittent s.c. dosing to day 29 in db/db mice (Example 2); type: in vivo
Procedure: Female db/db mice (12 weeks old) were divided into four groups and were subcutaneously injected with vehicle (PBS) or NT-4/5 at doses of 2 mg/kg, 5 mg/kg, or 10 mg/kg daily from day 0 to day 4, and then on day 8, day 11, day 15, day 18, day 22, day 25, and day 29. […] In addition, the body weights in NT-4/5 in all treated groups continued to be reduced during the treatment period.

[6] = test system: NONcNZO-10 polygenic obese mice; experiment: Non-fasting blood triglyceride level in NONcNZO-10 mice (Example 4, Table 18); type: in vivo
Text: as §1, §2

db/db mice [7] = experiment: Daily food intake after single injection of NT-4/5 or pegylated NT-4/5 in db/db mice (Example 7, Table 22); type: in vivo; conditions: for Daily food intake: single s.c. injection 5 mg/kg, db/db mice, mean
Procedure: Test animals: 30 female db/db mice at 7 weeks of age weighing in the range of 27-34 g were used in this study.
Administration of NT-4/5 and pegylated NT-4/5: Wild type NT-4/5 was obtained from Genentech Inc. The mice were divided into 5 groups of equivalent body weight distribution (6 mice per group). Each group received on the first day (day 1) of the study one and the only dose of either vehicle, 5 mg/kg of NT-4/5 produced as described above, 5 mg/kg of 2PEG-NT4-G1S, or 5 mg/kg of 1PEG-NT4-G1S. 2PEG-NT4-G1S represents one PEG molecule was conjugated to each NT-4/5 monomer in a NT-4/5 dimer, and 1PEG-NT4-G1S represents one PEG molecule was conjugated to only one monomer of the NT-4/5 dimer. 2PEG-NT4-G1S and 1PEG-NT4-G1S were separated by ion exchange. Four days before starting the treatment (day −4), blood samples were collected from the mice as described previously for the determination of baseline levels of serum glucose. On day 4 after the treatment started, blood samples were collected again to determine serum glucose level. Body weight and food intake were monitored 5 days a week through out the entire study.

db/db mice [8] = experiment: Triglyceride after two weeks daily s.c. NT-4/5 in db/db mice (Example 2); type: in vivo; conditions: day 14; 2, 5, 10 or 20 mg/kg s.c. daily for two weeks
Procedure: In another experiment, db/db mice were subcutaneously injected with vehicle (PBS) or NT-4/5 at 2 mg/kg, 5 mg/kg, 10 mg/kg, or 20 mg/kg daily for two weeks.

db/db mice [9] = experiment: Body weight and food intake, daily s.c. dosing day 1 to 30 in db/db mice (Example 2); type: in vivo
Procedure: Female db/db mice (12 weeks old) were divided into three groups and were subcutaneously injected with vehicle (PBS) or NT-4/5 at doses of 5 mg/kg, or 20 mg/kg daily from day 1 to day 30. […] Food intake was reduced to about 20% of the vehicle group level after 10 days of administration of NT-4/5 at 20 mg/kg and was maintained at that level until day 30. Food intake was returned to about the same level as the vehicle group about 12 days after stop of treatment.

## CN(CCOc1ccc(CC2SC(=O)NC2=O)cc1)c1ccccn1 (centres unmarked) [Rosiglitazone, reference compound]
db/db mice [1]
  Gastrocnemius weight: 0.074 g
  Heart weight: 0.114 g

B1: NT-4/5: mature human neurotrophin-4/5 (SEQ ID NO:1), obtained from Genentech or produced in E. coli (protein, listed as Homo sapiens)
chain: GVSETAPASRRGELAVCDAVSGWVTDRRTAVDLRGREVEVLGEVPAAGGSPLRQYFFETRCKADNAEEGGPGAGGGGCRGVDRRHWVSECKAKQSYVRALTADAQGRVGWRWIRIDTACVCTLLSRTGRA
[2]
  serum half life: 41 to 52 min
[3]; 3 mg/kg
  food intake: a significant reduction in food intake
[3]; dose dependent manner
  food intake: reduced
db/db mice [4]; 10 mg/kg/d, day 6, P<0.05
  serum insulin levels: significant reduction
db/db mice [4]; 20 mg/kg/d, day 6 and day 14, P<0.05
  serum insulin levels: significant reduction
db/db mice [4]; all treatment groups, remained low until day 29
  non-fasting serum glucose level reduction: more than 50%
db/db mice [4]; day 45 (15 days post-dose), 2, 5, 10 and 20 mg/kg s.c. daily day 1 to 26
  HbA1c levels versus vehicle: significantly lower than the vehicle group
db/db mice [4]; day 54, 28 days after the last dose
  glucose tolerance: significantly improved glucose tolerance
db/db mice [5]; 2, 5 or 10 mg/kg s.c. daily day 0-4, then days 8, 11, 15, 18, 22, 25, 29
  body weight: reduced body weight in a dose dependent manner
db/db mice [5]; day 31, 5 mg/kg and 10 mg/kg groups
  body weight reduction: about 20%
[6]; daily subcutaneous injection
  non-fasting blood triglyceride levels: significantly reduced
[6]; lowest dose 0.1 mg/kg/day s.c.
  non-fasting blood triglyceride level: significantly reduced
db/db mice [7]; Day 1
  Daily food intake: 6.6 g/day
db/db mice [7]; Day 2
  Daily food intake: 5.2 g/day
db/db mice [7]; Day 3
  Daily food intake: 7.3 g/day
db/db mice [7]; Day 4
  Daily food intake: 6.3 g/day
db/db mice [7]; single subcutaneous injection, 5 mg/kg, significantly
  food intake: reduced
db/db mice [8]
  triglyceride level as compared to vehicle: Significant reduction
db/db mice [9]; 20 mg/kg, after 10 days of administration, maintained until day 30
  food intake, % of the vehicle group level: about 20%
db/db mice [9]; 5 or 20 mg/kg s.c. daily day 1 to 30
  body weight: reduced body weight in a dose dependent manner
db/db mice [9]; mouse, in vivo
  time after stop of treatment until food intake returned to vehicle group level: about 12 days
